Data on one molecule can be found in patent US20160144027A1 (SAMSUNG ELECTRONICS, published 2016).

This assay addresses T1, human c-Met/Fc fusion protein (R&D Systems) (human, UniProt P08581 25-932).
T1 construct: Purchased reagent coated on ELISA plates; also called human c-Met/Fc protein; not shown: Fc part of the purchased fusion
Kind of assay: ELISA, hybridoma culture on plate-coated human c-Met/Fc fusion protein (2 ug/mL). The protocol: Human c-Met/Fc fusion protein was seeded in an amount of 50 μL (2 μg/mL)/well to microtiter plates and allowed to adhere to the surface of each well. The antibody that remained unbound was removed by washing.
The hybridoma cell culture obtained in Reference Example 1.1.2 was added in an amount of 50 μL to each well of the plates and incubated for 1 hour. The cells remaining unreacted were washed out with a sufficient amount of Tris-buffered saline and Tween 20 (TBST). Goat anti-mouse IgG-horseradish peroxidase (HRP) was added to the plates and incubated for 1 hour at room temperature. The plates were washed with a sufficient amount of TBST, followed by reacting the peroxidase with a substrate (OPD). Absorbance at 450 nm was measured on an ELISA reader.

T1 sequence (P08581 25-932): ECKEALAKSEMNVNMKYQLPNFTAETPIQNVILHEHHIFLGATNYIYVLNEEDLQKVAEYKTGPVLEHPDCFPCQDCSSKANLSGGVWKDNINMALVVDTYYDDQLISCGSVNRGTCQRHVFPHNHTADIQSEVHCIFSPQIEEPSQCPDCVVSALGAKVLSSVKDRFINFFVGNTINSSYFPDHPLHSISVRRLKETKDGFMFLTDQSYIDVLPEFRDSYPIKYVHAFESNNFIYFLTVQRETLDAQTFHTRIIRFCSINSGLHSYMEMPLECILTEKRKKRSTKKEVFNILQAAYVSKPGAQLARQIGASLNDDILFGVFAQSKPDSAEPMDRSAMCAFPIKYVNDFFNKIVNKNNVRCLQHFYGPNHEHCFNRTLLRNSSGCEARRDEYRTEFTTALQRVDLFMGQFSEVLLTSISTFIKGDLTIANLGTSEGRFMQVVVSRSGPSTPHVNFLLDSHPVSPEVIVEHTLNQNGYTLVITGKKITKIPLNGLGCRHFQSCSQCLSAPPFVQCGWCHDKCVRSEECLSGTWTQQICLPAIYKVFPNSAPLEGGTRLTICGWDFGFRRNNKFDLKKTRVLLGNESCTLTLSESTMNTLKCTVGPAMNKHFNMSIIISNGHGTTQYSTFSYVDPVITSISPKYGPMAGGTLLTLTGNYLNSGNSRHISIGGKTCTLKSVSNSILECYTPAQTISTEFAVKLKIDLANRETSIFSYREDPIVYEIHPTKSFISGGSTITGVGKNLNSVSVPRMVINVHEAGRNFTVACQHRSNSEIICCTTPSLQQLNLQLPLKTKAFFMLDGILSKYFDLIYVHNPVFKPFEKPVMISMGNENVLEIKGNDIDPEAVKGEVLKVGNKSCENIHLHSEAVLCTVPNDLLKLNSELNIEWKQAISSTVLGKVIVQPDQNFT

B1: AbF46, a mouse antibody to c-Met (antibody, V domains shown)
VH: EVKLVESGGGLVQPGGSLRLSCATSGFTFTDYYMSWVRQPPGKALEWLGFIRNKANGYTTEYSASVKGRFTISRDNSQSILYLQMDTLRAEDSATYYCARDNWFAYWGQGTLVTVSA
VL: DILMTQSPSSLTVSAGEKVTMSCKSSQSLLASGNQNNYLAWHQQKPGRSPKMLIIWASTRVSGVPDRFIGSGSGTDFTLTINSVQAEDLAVYYCQQSYSAPLTFGAGTKLELK
notes: Mouse monoclonal antibody from the single hybridoma clone chosen by ELISA; In the screening assay it was present as hybridoma culture supernatant; also called monoclonal antibody of hybridoma KCLRF-BP-00220
For the molecule B1, the binding result is “binds”.
